Our source for the HUCB-EPC adhesion onto gelatin-vitronectin after pre-treatment with 40 µg/ml, compared with BSA and HUCB-EPC adhesion onto gelatin-vitronectin after pre-treatment with 40 µg/ml, compared with control mouse IgG1 values is patent US20100173352A1.

The target of this experiment is human CD47/IAP receptor on HUCB-EPC (human) (UniProt Q08722). Nature of the experiment: cell-based or functional assay.

B1: mouse monoclonal anti-human CD47 IgG1 (clone B6H12) (antibody, from another filing, V domains shown)
VH: EVQLVESGGDLVKPGGSLKLSCAASGFTFSGYGMSWVRQTPDKRLEWVATITSGGTYTYYPDSVKGRFTISRDNAKNTLYLQIDSLKSEDTAIYFCARSLAGNAMDYWGQGTSVTVSS
VL: DIVMTQSPATLSVTPGDRVSLSCRASQTISDYLHWYQQKSHESPRLLIKFASQSISGIPSRFSGSGSGSDFTLSINSVEPEDVGVYYCQNGHGFPRTFGGGTKLEIK
Consider B1, for which the HUCB-EPC adhesion onto gelatin-vitronectin after pre-treatment with 40 µg/ml, compared with BSA amounted to 14.6% and the HUCB-EPC adhesion onto gelatin-vitronectin after pre-treatment with 40 µg/ml, compared with control mouse IgG1 turned out to be 16.6%.
